# From patent US20140242093A1, “METHODS AND COMPOSITIONS FOR MODULATING THE INNATE IMMUNE RESPONSE AND/OR MYOGENESIS IN A MAMMALIAN SUBJECT” (FRED HUTCHINSON CANCER RESEARCH CENTER, priority 2011, published 2014)
# Tested on: control human primary myoblasts
# Assay: Expression microarray of primary myoblasts transduced with lentivirus carrying DUX4-fl, DUX4-s or GFP
# Method: Primary human myoblasts were collected and cultured as previously described (Snider et al., 2010). Primary myoblasts were maintained at or below 70% confluency for proliferation. For differentiation, cells were allowed to reach 95-100% confluency in growth medium. Once confluency was reached, the cells were changed to differentiation medium (F10 media supplemented with 1% horse serum, 10 μg/mL insulin, and 10 μg/mL transferrin, penicillin/streptomycin) and maintained for 4 days. Human RD cells were grown in DMEM in 10% bovine calf serum (Hyclone) and penicillin/streptomycin. The primary myoblasts were transduced with lentivirus carrying DUX-fl, DUX4- or GFP (MOI=15).
# Expression microarrays were performed on the transduced cells at 24 hours after transduction as follows. […] Samples were analyzed by Illumina Human Whole Genome microarrays. Probe intensities were corrected, normalized, and summarized by the Lumi package of Bioconductor (Du et al., 2008). Differentially expressed genes were identified by the LIMMA package of Bioconductor (Wettenhall and Smyth, 2004). Gene set enrichment analysis (GSEA) was performed using the Bioconductor GOstats package (Falcon and Gentleman, 2007).
molecule,measurement,setting,value
"DUX4-s: short splice form of DUX4 (SEQ ID NO:112), keeps the double-homeobox domains, lacks the C-terminal activation domain (protein, listed as Homo sapiens) MALPTPSDSTLPAEARGRGRRRRLVWTPSQSEALRACFERNPYPGIATRERLAQAIGIPEPRVQIWFQNERSRQLRQHRRESRPWPGRRGPPEGRRKRTAVTGSQTALLLRAFEKDRFPGIAAREELARETGLPESRIQIWFQNRRARHPGQGGRAPAQV",fc of XPO1 (expression array),Refseq NM_003400.3,−0.2325
same,fc of ZFP36 (expression array),Refseq NM_003407.2,0.2317
same,ZKSCAN1 fc,Refseq NM_003439.1,0.3802
same,fc of Cxorfl2 (expression array),Refseq NM_003492.1,0.03462
same,fc of TAGLN2 (expression array),Refseq NM_003564.1,0.05495
same,fc of EEA1 (expression array),Refseq NM_003566.2,1.034
same,IFITM1 expression fc,"Refseq NM_003641.3, cultured human skeletal muscle",0.3441
same,fc of VAMP8 (expression array),Refseq NM_003761.2,0.002691
same,fc of VAMP4 (expression array),Refseq NM_003762.3,0.4731
same,RNGTT expression fc,Refseq NM_003800.3,−0.5916
same,RIPK1 fc,Refseq NM_003804.3,−0.2407
same,TNFSF10 fc,Refseq NM_003810.2,2.972
same,TNFRSF14 expression fc,"Refseq NM_003820.2, cultured human skeletal muscle",0.5666
same,fc of RIOK3 (expression array),Refseq NM_003831.2,1.133
same,TNFRSF10A fc,Refseq NM_003844.2,0.8441
same,PEX11B fc,Refseq NM_003846.1,−0.2212
same,CES2 expression fc,"Refseq NM_003869.4, cultured human skeletal muscle",0.06106
same,CFLAR expression fc,"Refseq NM_003879.3, cultured human skeletal muscle",0.5313
same,fc of ASAP2 (expression array),Refseq NM_003887.2,−0.3423
same,CCNA1 expression fc,Refseq NM_003914.2,1.884
same,fc of USP13 (expression array),Refseq NM_003940.2,−1.038
same,NPR2 fc,Refseq NM_003995.3,−0.04506
same,fc of OSMR (expression array),Refseq NM_003999.1,1.118
same,CHI3L2 expression fc,"Refseq NM_004000.2, cultured human skeletal muscle",0.2573
same,IRF7 expression fc,"Refseq NM_004029.2, cultured human skeletal muscle",1.137
same,CRY1 expression fc,Refseq NM_004075.2,−0.1268
same,PSPN expression fc,Refseq NM_004158.2,−0.03876
same,BEST1 fc,Refseq NM_004183.2,0.2661
same,UBE2L6 expression fc,"Refseq NM_004223.3, cultured human skeletal muscle",0.5808
same,fc of STK17B (expression array),Refseq NM_004226.2,1.309
same,fc of SLC9A3R1 (expression array),Refseq NM_004252.2,−0.06339
same,BST2 expression fc,"Refseq NM_004335.2, cultured human skeletal muscle",0.21
same,CREB1 fc,Refseq NM_004379.2,−0.08534
same,fc of HOXB7 (expression array),Refseq NM_004502.3,−0.06124
same,SP110 expression fc,"Refseq NM_004510.2, cultured human skeletal muscle",1.154
same,PSPH fc,Refseq NM_004577.3,0.005654
same,XPC expression fc,"Refseq NM_004628.3, cultured human skeletal muscle",0.2629
same,PABPN1 expression fc,Refseq NM_004643.1,−0.2585
same,MAP3K6 fc,Refseq NM_004672.3,−0.2268
same,fc of SLC16A5 (expression array),Refseq NM_004695.2,−0.03968
same,fc of SFRS2IP (expression array),Refseq NM_004719.2,−1.068
same,fc of ARHGEF2 (expression array),Refseq NM_004723.2,−0.07136
same,TIAF1 fc,Refseq NM_004740.3,−0.5294
same,NOLC1 expression fc,Refseq NM_004741.1,0.4977
same,SLIT2 expression fc,Refseq NM_004787.1,0.8501
same,LPXN fc,Refseq NM_004811.1,−0.0176
same,PEX16 fc,Refseq NM_004813.1,0.02427
same,C9orf61 expression fc,Refseq NM_004816.2,−0.2563
same,MED26 expression fc,Refseq NM_004831.3,0.1371
same,fc of GSTO1 (expression array),Refseq NM_004832.1,0.3142
same,fc of LITAF (expression array),Refseq NM_004862.2,1.12
same,fc of SCAMPI (expression array),Refseq NM_004866.4,1.369
same,fc of APBA3 (expression array),Refseq NM_004886.3,0.001776
same,SERPINI1 expression fc,Refseq NM_005025.3,0.0354
same,TRIM25 expression fc,"Refseq NM_005082.4, cultured human skeletal muscle",0.5139
same,SFRS17A expression fc,Refseq NM_005088.2,0.2404
same,ISG15 expression fc,"Refseq NM_005101.1, cultured human skeletal muscle",0.128
same,MVP fc,Refseq NM_005115.3,−0.1162
same,MED13 expression fc,Refseq NM_005121.2,0.0264
same,fc of REC8 (expression array),Refseq NM_005132.2,−0.244
same,ATP6V0A1 fc,Refseq NM_005177.3,−0.04497
same,CEBPB expression fc,"Refseq NM_005194.2, cultured human skeletal muscle",0.2783
same,ETS1 fc,Refseq NM_005238.2,−0.1783
same,FAT1 fc,Refseq NM_005245.3,0.4055
same,GPR37 expression fc,Refseq NM_005302.2,0.2151
same,H1F0 expression fc,"Refseq NM_005318.2, cultured human skeletal muscle",0.5004
same,HSPA1A expression fc,Refseq NM_005345.4,−0.02035
same,HSPA1B expression fc,Refseq NM_005346.3,0.359
same,NEFM expression fc,Refseq NM_005382.1,0.8485
same,SHMT2 fc,Refseq NM_005412.4,0.2615
same,STAT2 expression fc,"Refseq NM_005419.2, cultured human skeletal muscle",0.1861
same,EOMES expression fc,Refseq NM_005442.2,0.06484
same,TOM1 fc,Refseq NM_005488.1,4.81E−05
same,HLA-B expression fc,"Refseq NM_005514.5, cultured human skeletal muscle",0.3367
same,HLA-E fc,Refseq NM_005516.4,0.8147
same,IFI16 expression fc,"Refseq NM_005531.1, cultured human skeletal muscle",0.6846
same,IFI27 expression fc,"Refseq NM_005532.3, cultured human skeletal muscle",0.2746
same,IFI35 expression fc,"Refseq NM_005533.2, cultured human skeletal muscle",0.9169
same,IRS1 fc,Refseq NM_005544.1,0.2753
same,KLC1 expression fc,Refseq NM_005552.4,−0.06609
same,RGS4 expression fc,Refseq NM_005613.3,−0.4837
same,SGK expression fc,Refseq NM_005627.2,−0.1104
same,TAF4B expression fc,Refseq NM_005640.1,−0.0444
same,fc of TERF2 (expression array),Refseq NM_005652.2,0.3314
same,fc of REEP5 (expression array),Refseq NM_005669.4,−1.138
same,fc of HIPK3 (expression array),Refseq NM_005734.3,1.555
same,ARIH1 expression fc,Refseq NM_005744.2,0.784
same,fc of NAMPT (expression array),Refseq NM_005746.2,1.21
same,LHFPL2 fc,Refseq NM_005779.1,−0.1437
same,STX6 expression fc,Refseq NM_005819.4,−0.4696
same,fc of RCAN2 (expression array),Refseq NM_005822.2,−1.005
same,MFGE8 fc,Refseq NM_005928.1,0.03254
same,MT1X expression fc,"Refseq NM_005952.2, cultured human skeletal muscle",0.3162
same,SNAI1 expression fc,Refseq NM_005985.2,−0.03657
same,RBM12 expression fc,Refseq NM_006047.4,−0.3748
same,TRIM22 expression fc,"Refseq NM_006074.3, cultured human skeletal muscle",−0.01965
same,CBARA1 expression fc,Refseq NM_006077.2,−0.1543
same,TUBB2C expression fc,Refseq NM_006088.5,−0.5391
same,LASP1 fc,Refseq NM_006148.1,−0.4552
same,NFE2L2 fc,Refseq NM_006164.2,0.329
same,OAS3 expression fc,"Refseq NM_006187.2, cultured human skeletal muscle",0.8654
same,fc of PDGFRL (expression array),Refseq NM_006207.1,1.203
same,PSME1 fc,Refseq NM_006263.2,0.2775
same,STK3 expression fc,Refseq NM_006281.2,−0.215
same,THY1 fc,Refseq NM_006288.2,−0.6444
same,TNFAIP3 expression fc,"Refseq NM_006290.2, cultured human skeletal muscle",0.2793
same,HSPB3 expression fc,Refseq NM_006308.1,−0.7934
same,NXF1 expression fc,Refseq NM_006362.4,−0.3456
same,fc of ATG7 (expression array),Refseq NM_006395.1,0.2083
same,SLC34A2 expression fc,Refseq NM_006424.2,−0.03231
same,TXNRD2 fc,Refseq NM_006440.3,−0.1666
same,fc of MXD4 (expression array),Refseq NM_006454.2,−0.9168
same,ARID3B expression fc,Refseq NM_006465.2,−0.07455
same,TXNIP expression fc,"Refseq NM_006472.2, cultured human skeletal muscle",−0.01014
same,ZNF217 expression fc,Refseq NM_006526.2,−0.3262
same,FAM189B fc,Refseq NM_006589.2,0.04019
same,fc of TCFL5 (expression array),Refseq NM_006602.2,0.0336
same,RFPL2 expression fc,Refseq NM_006605.1,0.03122
same,fc of NES (expression array),Refseq NM_006617.1,−1.118
same,HSPH1 expression fc,Refseq NM_006644.2,−0.4879
same,HCP5 fc,Refseq NM_006674.2,0.1443
same,UGP2 fc,Refseq NM_006759.3,0.1108
same,IFI44L expression fc,"Refseq NM_006820.1, cultured human skeletal muscle",0.4651
same,fc of CKAP4 (expression array),Refseq NM_006825.2,0.03538
same,fc of ILVBL (expression array),Refseq NM_006844.3,−0.2803
same,KDELR3 fc,Refseq NM_006855.2,−0.444
same,fc of GMPR (expression array),Refseq NM_006877.2,1.36
same,SLC2A3 expression fc,Refseq NM_006931.1,0.1012
same,fc of HSPA13 (expression array),Refseq NM_006948.4,1.34
same,ZBTB25 fc,Refseq NM_006977.2,0.3463
same,ADAMTS1 fc,Refseq NM_006988.3,0.1765
same,C1Oorf10 expression fc,"Refseq NM_007021.2, cultured human skeletal muscle",0.1432
same,fc of DNAJB4 (expression array),Refseq NM_007034.3,0.413
same,KATNA1 expression fc,Refseq NM_007044.2,0.1132
same,UBL3 expression fc,Refseq NM_007106.2,−0.807
same,TESK2 expression fc,Refseq NM_007170.2,0.1269
same,NUP50 expression fc,Refseq NM_007172.3,1.035
same,fc of PACSIN2 (expression array),Refseq NM_007229.1,−0.3253
same,DUSP12 expression fc,Refseq NM_007240.1,0.09869
